The target of experiment [1] is antibody C1. Description: peptide competition ELISA; free peptide competes with coated target peptide for C1. (In general: ELISA stands for enzyme-linked immunosorbent assay.)
The target of experiment [2] is antibody C1. Description: peptide competition ELISA; competitor for C1.
Experiment [3] deals with antibody C1. Briefly: peptide competition ELISA; reference YEVQGEVF
The target in experiment [4] is antibody P1. Description: peptide competition ELISA; reference EPAELTDA
For experiment [5], the target named is antibody P1. Description: peptide competition ELISA; competitor for P1.

One may read the IC50 as the point on the concentration scale where inhibition reaches its midpoint. The low end stands for inhibition by little substance, the high end for a need for much substance.

For YEVQGEVF [CRP-derived 8-mer PET sequence YEVQGEVF], the IC50 in the experiment with antibody C1 [1] came to 1 µM.
The molecule VEVNGEVF [nearest-neighbor 8-mer VEVNGEVF] yielded an IC50 with antibody C1 [2] of over 1000 µM. The molecule further gave a fold higher concentration (ineffective) than the antigen PET's half-maximum with antibody C1 [3] of over 1000 fold.
The corresponding values for YEVLGEEF [nearest-neighbor 8-mer YEVLGEEF] are over 1000 µM and over 1000 fold.
Take DPTQLTDA [nearest-neighbor 8-mer DPTQLTDA]: the fold higher concentration (ineffective) than the antigen PET's half-maximum with antibody P1 [4] turned out to be 25000 fold. Further, the IC50 in the experiment with antibody P1 [5] was over 1000 µM.
The corresponding values for EPVELTSA [nearest-neighbor 8-mer EPVELTSA] are 25000 fold and over 1000 µM.

Source of the values: US20040180380A1.
